From patent CN115043938A (DUAN LIANGWEI; JIANG ZHIHUA; WANG HUI, dated 2022) come the findings set out here.

The target in assay [1] is 新型冠状病毒野生型RBD蛋白 (RBD-WT, cat#Z03479, Gensript) (SARS-CoV-2 野生型, UniProt P0DTC2 319-541). As to the kind of experiment: BIAcore SPR, RBD immobilised on CM5 chip, antibody as analyte, 25℃, 1:1 model.
The target of another assay is SARS-CoV-2野生型 S蛋白 (假病毒) (SARS-CoV-2 野生型, UniProt P0DTC2 14-1273). As to the kind of experiment: cell-based or functional assay.

B1: 抗体Amb2 (antibody, V domains shown)
VH: EVQLLESGPGLVKPSETLSLTCTVSGGSISNSSYYWGWIRQPPGKGLEWIGSIYYSGSTYYNPSLKSRVTISVDTSKNQFSLKLSSVTAADTGVYYCASWLYGDPISFDYWGQGTLVTVSS
VL: not shown
Consider B1, for which binding in assay [1] was put at a Kd of 164 nM. Moreover, in the assay with SARS-CoV-2野生型 S蛋白 (假病毒), the “假病毒中和 IC50” value was found to be 0.064 µg/mL.

B2: 抗体Amb1 (antibody, V domains shown)
VH: EVQLLESGTEVKKPGSSVKVSCKASGGTFSSYAISWVRQAPGQGLEWMGGIIPILGIANYAQKFQGRVTITADKSTSTAYMELSSLRSEDTAVYYCARERGYSGYGAAYYFDYWGQGTLVTVSS
VL: QSVLTQAPSVSGAPGQSVTISCTGSSSNIGAGYDVHWYQQLPGTAPKLLIYGNNNRPSGVPDRFSGSKSGTSASLAITGLQAEDEADYYCQSYDSSLSKGVFGGGTKLTVL
Regarding B2, binding in assay [1] was put at a Kd of 151 nM. The “假病毒中和 IC50” value with SARS-CoV-2野生型 S蛋白 (假病毒) is 0.13 µg/mL.

One may read the Kd as a measure of binding affinity in units of concentration. Higher therefore signals lower affinity.
